Experimental data published in PMC7137648, “Molecular and Cellular Interactions of Scavenger Receptor SR-F1 With Complement C1q Provide Insights Into Its Role in the Clearance of Apoptotic Cells” (Frontiers in Immunology, 2020).
Substitutions are numbered along the chain they refer to. Names may count otherwise.

B1: SR-F1(20-421), recombinant soluble SR-F1 ectodomain (domain or fragment, human)
chain: SELDPKGQHVCVASSPSAELQCCAGWRQKDQECTIPICEGPDACQKDEVCVKPGLCRCKPGFFGAHCSSRCPGQYWGPDCRESCPCHPHGQCEPATGACQCQADRWGARCEFPCACGPHGRCDPATGVCHCEPGWWSSTCRRPCQCNTAAARCEQATGACVCKPGWWGRRCSFRCNCHGSPCEQDSGRCACRPGWWGPECQQQCECVRGRCSAASGECTCPPGFRGARCELPCPAGSHGVQCAHSCGRCKHNEPCSPDTGSCESCEPGWNGTQCQQPCLPGTFGESCEQQCPHCRHGEACEPDTGHCQRCDPGWLGPRCEDPCPTGTFGEDCGSTCPTCVQGSCDTVTGDCVCSAGYWGPSCNASCPAGFHGNNCSVPCECPEGLCHPVSGSCQPGSGSRDTLIK
modifications: N-linked glycans at Asn 289, 382 and 393
notes: scavenger receptor class F member 1 (SR-F1, SREC-I, SCARF1), human, extracellular domain with EGF-like repeats 1-10; Mass 49.1 kDa by MALDI-TOF (polypeptide 44.0 kDa plus N-glycans); also called SR-F1 extracellular domain; not shown: His8, C-terminal, kept
B2: SR-F1(20-421) N382Q (domain or fragment, human)
chain: B1 chain with N363Q
modifications: N-linked glycans on the two remaining sites (Asn 289, Asn 393)
notes: SR-F1 (SCARF1), human, ectodomain as m1 with Asn 382 replaced by Gln; also called SR-F1 N382Q; N382Q mutant
B3: recombinant human calreticulin (CRT) (natural protein, UniProt P27797 18-417, looked up)
chain: EPAVYFKEQFLDGDGWTSRWIESKHKSDFGKFVLSSGKFYGDEEKDKGLQTSQDARFYALSASFEPFSNKGQTLVVQFTVKHEQNIDCGGGYVKLFPNSLDQTDMHGDSEYNIMFGPDICGPGTKKVHVIFNYKGKNVLINKDIRCKDDEFTHLYTLIVRPDNTYEVKIDNSQVESGSLEDDWDFLPPKKIKDPDASKPEDWDERAKIDDPTDSKPEDWDKPEHIPDPDAKKPEDWDEEMDGEWEPPVIQNPEYKGEWKPRQIDNPDYKGTWIHPEIDNPEYSPDPSIYAYDNFGVLGLDLWQVKSGTIFDNFLITNDEAYAEEFGNETWGVTKAAEKQMKDKQDEEQRLKEEEEDKKRKEEEEAEDKEDDEDKDEDEEDEEDKEEDEEEDVPGQAKDEL
notes: calreticulin, human, recombinant; MW = 49,431 g/mol used for quantification; In the endocytosis assay the protein was labelled with Alexa Fluor 568 succinimidyl ester; also called rCRT; AF568-rCRT
B4: SR-F1(20-421) N393Q (domain or fragment, human)
chain: B1 chain with N374Q
modifications: N-linked glycans on the two remaining sites (Asn 289, Asn 382)
notes: SR-F1 (SCARF1), human, ectodomain as m1 with Asn 393 replaced by Gln; also called SR-F1 N393Q; N393Q mutant
B5: SR-F1(20-221) (domain or fragment, human)
chain: SELDPKGQHVCVASSPSAELQCCAGWRQKDQECTIPICEGPDACQKDEVCVKPGLCRCKPGFFGAHCSSRCPGQYWGPDCRESCPCHPHGQCEPATGACQCQADRWGARCEFPCACGPHGRCDPATGVCHCEPGWWSSTCRRPCQCNTAAARCEQATGACVCKPGWWGRRCSFRCNCHGSPCEQDSGRCACRPGWWGPECQQLIK
notes: SR-F1 (SCARF1), human, EGF-like repeats 1-5, lacks EGF-like modules 6 to 10 and the three N-glycosylation sites; construct encodes the 221 first residues, named 20-221 as secreted protein; kept here by the cloning as described; The Leu-Ile-Lys and 8 His tail is printed for the parent plasmid only; also called SR-F1(1-221); SR-F(20-221); not shown: His8, C-terminal, kept
B6: SR-F1(20-353) (domain or fragment, human)
chain: SELDPKGQHVCVASSPSAELQCCAGWRQKDQECTIPICEGPDACQKDEVCVKPGLCRCKPGFFGAHCSSRCPGQYWGPDCRESCPCHPHGQCEPATGACQCQADRWGARCEFPCACGPHGRCDPATGVCHCEPGWWSSTCRRPCQCNTAAARCEQATGACVCKPGWWGRRCSFRCNCHGSPCEQDSGRCACRPGWWGPECQQQCECVRGRCSAASGECTCPPGFRGARCELPCPAGSHGVQCAHSCGRCKHNEPCSPDTGSCESCEPGWNGTQCQQPCLPGTFGESCEQQCPHCRHGEACEPDTGHCQRCDPGWLGPRCEDPCPTGTFGEDCGSLIK
modifications: N-linked glycan at Asn 289
notes: SR-F1 (SCARF1), human, EGF-like repeats 1-8; kept here by the cloning as described; The Leu-Ile-Lys and 8 His tail is printed for the parent plasmid only; not shown: His8, C-terminal, kept

Columns and labels:
Conditions in all cases: both partners purified
complement protein C1q [1] = target: T1, complement protein C1q (human, UniProt P02745 23-245; P02746 28-253; P02747 29-245); assay: SPR; SR-F1(20-421), SR-F1(20-353) or SR-F1(20-221) injected at five increasing concentrations (multiple cycle kinetics) over covalently immobilized C1q (about 16,000 RU, CM5, amine coupling), BSA reference surface, TBS-Ca-P pH 7.4 (2 mM CaCl2), 20 μl/min, 25°C; global fit, 1:1 Langmuir model; apparent KD
T1 construct: complement C1q A-chain, human; C1q is 18 polypeptide chains assembled into 6 triple helices of A-chain, B-chain and C-chain (460 kDa); complement C1q B-chain, human; complement C1q C-chain, human; also called whole C1q; serum C1q; source: purified from human serum; copies: 6 + 6 + 6
T1 sequence (P02745 23-245, chain 1 of 3): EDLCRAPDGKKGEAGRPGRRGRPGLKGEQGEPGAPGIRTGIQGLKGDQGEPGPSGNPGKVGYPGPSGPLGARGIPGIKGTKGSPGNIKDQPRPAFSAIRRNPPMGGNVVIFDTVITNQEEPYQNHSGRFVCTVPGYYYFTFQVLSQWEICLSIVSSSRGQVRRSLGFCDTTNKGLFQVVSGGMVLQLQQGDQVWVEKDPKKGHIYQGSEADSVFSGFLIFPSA
T1 sequence (P02746 28-253, chain 2 of 3): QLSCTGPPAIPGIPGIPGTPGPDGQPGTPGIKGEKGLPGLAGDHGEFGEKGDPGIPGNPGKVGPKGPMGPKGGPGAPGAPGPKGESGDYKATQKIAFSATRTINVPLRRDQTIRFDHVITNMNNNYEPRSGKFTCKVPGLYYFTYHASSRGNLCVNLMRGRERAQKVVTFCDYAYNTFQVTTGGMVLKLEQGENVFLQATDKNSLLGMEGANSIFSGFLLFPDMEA
T1 sequence (P02747 29-245, chain 3 of 3): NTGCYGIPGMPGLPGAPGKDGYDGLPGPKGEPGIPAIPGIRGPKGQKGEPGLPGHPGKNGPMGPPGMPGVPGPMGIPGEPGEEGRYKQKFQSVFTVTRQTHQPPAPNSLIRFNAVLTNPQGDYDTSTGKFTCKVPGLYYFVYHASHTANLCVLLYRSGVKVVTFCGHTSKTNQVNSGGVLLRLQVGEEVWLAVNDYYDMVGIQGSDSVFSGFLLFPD

complement protein C1q [2] = target: T1, complement protein C1q; assay: SPR; N-glycosylation site mutants of SR-F1(20-421) with C1q (Figures S5A-C), n = 2; which partner was immobilised is not told in the text shown; apparent affinity
[3] = target: B1; assay: SPR; reverse configuration: soluble SR-F1(20-421) over immobilized CRT (3,320 RU); apparent KD; data not shown
[4] = target: B1; assay: SPR; CRT injected at five increasing concentrations (single cycle kinetics) over covalently immobilized SR-F1(20-421) (1,845 RU) in TBS-Ca-P at 30 μl/min, 25°C; global fit, two-state reaction model; apparent KD
[5] = target: B3; assay: SPR; SR-F1(20-353) and SR-F1(20-221) fragments with CRT (Figure S7); which partner was immobilised is not told in the text shown

B1
Kd (complement protein C1q [1]): 186 nM | koff (complement protein C1q [1]): 0.00126 s⁻¹ | kon (complement protein C1q [1]): 6840 M⁻¹ s⁻¹ | t1/2 (half-life of the complex, ln2/kd) (complement protein C1q [1]): 9.17 min

B2
Kd (complement protein C1q [2]): 604 nM

B3
Kd [3]: 770 nM | Kd [4]: 345 ± 8 nM

B4
Kd (complement protein C1q [2]): 589 ± 20 nM

B5
Kd (complement protein C1q [1]): 17.7 nM | koff (complement protein C1q [1]): 0.00303 s⁻¹ | kon (complement protein C1q [1]): 185000 M⁻¹ s⁻¹ | t1/2 (half-life of the complex, ln2/kd) (complement protein C1q [1]): 3.82 min | binding result [5]: binds

B6
Kd (complement protein C1q [1]): 32.4 nM | koff (complement protein C1q [1]): 0.00209 s⁻¹ | kon (complement protein C1q [1]): 70000 M⁻¹ s⁻¹ | t1/2 (half-life of the complex, ln2/kd) (complement protein C1q [1]): 5.52 min | binding result [5]: binds
